In the domain aggregation screens of Martell et al. (2025):

Assay: soluble fraction after stress (log2 fold change); higher = more stays soluble; pooled small domains, quantitative proteomics
Settings: stress: 50 degC
Method in brief: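 Custom libraries of small protein domains were pooled and measured in a high-throughput format, with quantitative proteomics as the read-out. Each library was stressed at 50°C. The value is the log2 fold change in the amount of each protein that stays soluble after stress, used as a measure of aggregation propensity; higher values mean more of the protein stays soluble.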

| Sequence | soluble fraction (log2) |
| --- | --- |
| HMATSNGEFVIPDGGLQFEELERSLLMQALKKSGGSQTGAARLLGLSRDTLRYRLEKFGIDAAAVRE | -0.165 |
| HMATVTVPNLKGMTPSGAESALAELNLKGAVGDSVESNDVENGKVASQDQAAGSDAKEGDTITYHLSS | 0.0967 |
| HMATYETEVISGVNLRSAPNTSASVYRLLSKGEDIHVIQKVNDYWLKVQTKDGKIGYISASSKYTNYIA | -0.29 |
| HMAVEETFTITWLDRDGTVLEVDENVLKGTMPSFDGHIPPHDGLEFKGWDPEVVPVEGDATYTATYKA | -0.176 |
| HMAVENTGLSKRELEILQMMARGMSNQEIGDALFISLSTVKTHVASIFSKLQAVRRTQAVGIAKSLKII | -0.917 |
| HMAVFSKKQIFDTAFALFESKGLEAITARNLGKALSSSPAPIYAHYSSITELKNELISVAKDR | -2.25 |
| HMAVGDMISKLRTAANMSQEQFAELFGVTRQSVQKWENSFSVPELEKLIKISKYFDVSLDALVLRSDARVT | -1.06 |
| HMAVLFFVKRGERILGPTRLADLFQHAASGRLRANDLVGESPKGPWLPARQLDELEDAWASSRDATEAAAA | 0.251 |
| HMAVNQEFKNTINRIKYEYSLNQSQIADRLGVKKTYLSDMINGRVPYNETMNKKVNDVFPLPP | 0.11 |
| HMAVPTHVEFPVVGLQRSGITSLEQAIATVPGVSKAVVNVSDNRIFVDYDPTRSKVSDLLEVVRGAGFTP | -0.000584 |
| HMAVQAESDIIKRAALLRNLGNTSMQLKNIDQAIDFYKQGIKLHPEDAELKYNLSQALRQKSQSNN | 0.0399 |
| HMAVQEDAGLAREDLPPEVQGLLQEREAARAAKDWGKSDALRRQLQDLGYAIKDTAQGMEIKRT | 0.425 |
| HMAVRNTKQKQLVLSLLKNSGRPMTAGEIYRLAVQQYPNIAKSTVYRNLENLVSRGEVSQGMHQNGESFYS | -0.299 |
| HMAVSPEEQKKRIIELFRNRNEVSFKEIFDLPTKGHFVITLLAVLDLARQQIVIMEQLENEGIIKFTKGA | -0.0715 |
| HMAVSSHAVKQRIRSLIQAEDPAAPLSDEALRLALSALGVDVSRRVIAKYRAELNIPSSSQRKK | 0.045 |
| HMAVSVPDVMGLTYEEAYNKITAEGLLVNRLESYTGLVEKGRVISQLPVGGEPAAKGSTVNVNVSL | 0.252 |
| HMAVTFPYTAYATDAVRLRERPSSSADVLAVIRKGDAVLVTGTDGNYAIVDYEGKRGYVVSSFIAT | -0.317 |
| HMAVWRIKVNYIPGYGVNIWSSYKNGHFTGKRAMHGETYEVLETKKDQDGNTWYKLDDHQWIEGRYAINAK | -0.466 |
| HMAYMETIERVEALAPGTKFNLKALFGTDWTQSRGTKLTLGKTFYEMVESGYVKTAKVLGKDSSNIMQYER | -0.107 |
| HMAYSEEERNLIRSRLKDVAAALFKEKGIRDTNIDEIYTPVGISKTFFYSFFPSKAVLAIAIMK | 0.0382 |
| HMAYVDWYENKQPTHEEAFKKLLGRIHPGAIVLLHSTSKTNGEILDELLTKWEEMGYRFGTLDELTGN | -1.18 |
| HMDAATDAIKAEVRALLEMANAQGIDTESIMLEAHEQTRNATEQDYYEAAKSALEAAIAGSNRDR | 0.0377 |
| HMDADGEPIKLDQIGISHLSFTVADVKSLGEELVAKGVKLAAPMEAFTSPEGRISSIFVYDPDGILLQFDD | -0.104 |
| HMDADRLSPREREMLQFIARGQSNKEIARALELAESTVKIHVQNMLRKLNLSSRVQAAVFAVENGLG | -0.109 |
| HMDAGLAEIIRSFEDNLGGFPPAAREDLLGWREIFTDDLILLAIKKAALAGVRKWSYVNGILKVWKNEGVR | -0.742 |

| Sequence | soluble fraction (log2) |
| --- | --- |
| HMDAHYMEMKGKTGTAFTMLRPAGKIDIEGQIFDAVAEAGFIEKGEAIRVVKYENAQLIVRK | 0.11 |
| HMDAIAYLGSRLKEIRLKSGLSLREIARQLDVSPSFISQIENGKSQPSVATLYAFAKLLNVPVDVLFQPS | -1.05 |
| HMDAKNNPQVMAQIRAILTAKGLSEDEVKTRLKTKNIDVDKMTDQEIIAQRPAIEAIINEMEQEKKQKMG | 0.252 |
| HMDALPLIQLEKEIKDFISQGQKINAIKHYRNVMDRDFGTTISLKLAKYTVDALAQNIKVDLTKGYDQ | -0.475 |
| HMDALTLSIDAQGALYWNGQPVSRELAAQRFVEAAAQRPQPELHLRADQNVAYRHVAMTLADASRAGLTR | -0.0244 |
| HMDANAYTYKVSEDTDTRTGEKIFLVKVAEKLSRKEYIVVNNYMKSLGSYYSKFKHAFLFKENPTEKL | -0.23 |
| HMDANLGEIFKVYEQEIGALTPFVREEMLDAIDHYPRDWILDAIRESAKSNARNWKYTLAILKRWKAEG | -0.312 |
| HMDAPIIRLLNSLVQRAVTTTASDIHIEPFEGETKVRMRIDGVIIDYVTLQRALHQPLIARIKIMSNLD | -0.202 |
| HMDAPKTGSLVVSKAVNYGSWSGFTFRLHGTSDKGNSVDVTATTGSDGKAYFKDIEIGTYTLEEVN | -0.387 |
| HMDAQEAAWARKMMETLPEKQKLSVALRIEEGLSFKEIGEIIGSSEGAARVNYFHGIRRLRELL | -0.688 |
| HMDAQNLQDQLFGFLKANPTQAYPAQTLADGLRLDDANAFTKVVQALAALERGGKVKVNEEGAFQYDAEK | 0.0478 |
| HMDARSTHIAAIHVLKSKLQLQDSDYRALLLTLTGQTSSKDLSEHQRRAVRNHMQQLAERMGVVQ | -0.533 |
| HMDATFKVRVSVPDLNIRSGPGTNYAATGRFTGVGVFTITAVQSGQGSSSGWGKLKSGAGWIALDYAKR | -2.39 |
| HMDATIGGFKITDSAIYSGVKNNVNAGVRGTYIDKDGQIAFGDSNSYLKYYKDTDGKWKLEVSASSVKF | 0.139 |
| HMDAVDKDGNHMTFKKWSEQLQEAFHALELYDTTRAKQILSELVKFQVDSDITKSLKAIITNIDDMMA | -0.338 |
| HMDAYDEVTTLSQMVASGKNTTVAHLKHLKEYHQTDYLRQAVEWLLSNRKNVSFSVDEVMQEVHN | -0.0339 |
| HMDAYLPETVQKLLDVMDFDVPYSAAQLMEKLGLKSRASFRKLYLLPALEKNLIAMGVPDKPTSRNQTYIR | -0.417 |
| HMDAYSYFIRTYPLVDDPLIGDIRRIFAETHDGNPAGDADVRHILWRLLFERELYPTLDEATADWY | -2.54 |
| HMDDEAVQIMTLHISKGLEFDVVFALGLVSRTPESKEIEELEAEKQRQLYVAMTRAEKWLIVAA | -0.12 |
| HMDDEDLAFLQREFVSYQQAMDYYGLGYKPVVRLSHISGSVYKIGKKVLIRRNIFEEYLRNHV | -0.00496 |
| HMDDFGERLRKLRVAQDLTQQQLGEKLGVVPSTIGKYEKVKDSYPSIEVLIKLSDFFSVSTDYLLKG | -1.88 |
| HMDDFTEVLLQYLKDHDGYSSIHDKTDAETIYNTFGVSKKTFKKAVGDLYKKRLIVLEEEGIRLLG | -0.0665 |
| HMDDISLEEIKYISSKLETKVNEIEELLVRYYDGETNEAEEKELKEFFAQADVPAHLLAEKRLFMQLASQ | -0.0772 |
| HMDDKVGKVFNYVQEKILTGEWDIGDKITPEISLSKELGVSRSVVREAIKKFVALNILSRTQGGGTYVNNL | -0.515 |
| HMDDNMNEQWKMILNSIAKKGSVTRQETEKILGIGQTRAHVLLKAMIHAGMIKAVGDGKKRRYVR | -1.01 |

| Sequence | soluble fraction (log2) |
| --- | --- |
| HMDDNRSLSDLAQQVFKRENIQVSRDTLSLLVSRLGSDRAVSRQEIEKLALFAGSNGKLTEEDIHNALG | 0.192 |
| HMDDPISSMVNRIRLAFGLSVTDLAAVLGVERPTIYSWLKDGSTPAPARLTRVRQVLSLADTW | -0.194 |
| HMDDPITVAYRETEDAIAQVQREGFPVEMPPANSYIRRIQHELAGRFNLDSESYGDEPERRVRIRPQQ | -0.00875 |
| HMDDPTVILFDPKNGQRKIVKWKAGLTLYSARRSAGISSAAEATIQRAGKSLSGRTATALEPGDVIRW | -0.953 |
| HMDDSSLFGRHTGIGFIVDDIDSGYQTLLAKGVSFEMPPTEQPWGGILALMKDPDGNIFYLD | -0.0639 |
| HMDDTRLLSEIGLSQRVLNALRARGIERVGQVLAMRPDQLLGIRNFGPRALQELRERLQENGYTEGPLFSG | 0.309 |
| HMDDVIDVYATYDVSPTNQISNIKLYSDAAHANPVTGEAGKSYNDITEGHPGYQFRWSGTTWVPI | -0.295 |
| HMDDVIEVEGKVVEVLPNTKFIVELANSHKITAHISGKLRMNYIRIMKGDNVTVEMSPYDLTKGRIIWRS | -0.00397 |
| HMDDVVVLPFTAEFARMSSDDFVREILVGKIGMKRFVVGYNHRFGSGQQGDFASLQRMQGELGFVAVRVG | 0.0571 |
| HMDDVYMVPVKDIAINDLKQEFEKLGIPNIQNTIPDKDLNFFIVRKDDLALVNYAIEKTMER | -0.0369 |
| HMDEAETELIRRMVSEHPPTTKRERDIVQMRLRGYLFVEIGEAYGISFQRAAQIYNAAVEKIKEYWD | 0.00188 |
| HMDEEQIASRRALIMRAAREIMETQGMEALSIRKIAAMIQQTPGIIYHYFSGKEELMLAVVQEGYH | 0.111 |
| HMDEFAGSAKPLADGAAPAGYDVKGNKDSMKYHEPGGRWYDATVAEVWFKTAADAEAAGFVKAGA | 0.172 |
| HMDEFHLSERERQILNLLVLGHTYKHIASDLNIAYATVNKHVSNVYAKLRVQSASEAVALAIRKGL | -0.899 |
| HMDEFTIILEDAGSQKIAVIKEVRVLNSSLGLKEAKDLVDATPATIMEKADKATADKAKAAFEAAGAKVTI | -0.22 |
| HMDEIDYSKYSITTSNRIINIDGVQSKVELFDVSGRSIQSTMVTGKFSSRPLNAGFYIIHVDGYSVKVSV | -0.889 |
| HMDELIKQVANYIINNRATINETAGAFGKSVSSIKKYINDADKLQRIDFELYQKVKEVQKIVELNGQI | 0.144 |
| HMDEMEFQKYVDQNLKQKGISLTAEAKAELLLRLGGDTMLLHSAIEKLDLYGEKNLNLNDIKHLVSLNSDV | 0.229 |
| HMDENMQRYNTMEEIKKEFPYAEDTVRKLIAMGAIRGGGKVDANGDPADMDLSRDMLRMMVFNDRAGAYG | 0.544 |
| HMDEPGTGFKWREDVLLRVMEANGIDTSHRDDFVRHAVKFDNDDNLYLKKAEIEDAAAAWVSEHS | 0.0272 |
| HMDERLAKLTPQERKILDLIAEGATNRQIGTELHLAEKTVKNYVSNMLMKLGMSRRTEAAVFAVKASIN | -0.64 |
| HMDERLLRLYERELQFLREGADEFAQAYPKVAGHLGLNSQSMGDPFIERLLEGLGFLTARIQLQLESEF | -0.0252 |
| HMDEWFPVNDDYKFMVGDEVRTPDGLVKVVATHNDSATFYGKIITPIHDDVLKGETYEYRSYEAQVLA | -0.425 |
| HMDEWKRKELWDAIARLPKIQRMVVTMRTTENLPYKEIAKIMNISENSAKVNYHHAVEALKIFF | -2.66 |
| HMDEYGEVQALQRAGQTSEALARADRHIAAHPNDPQMRFVKANLLSAGGRAGEAETLLVQLTRD | -0.0234 |
